{"source": "the Human Domainome abundance scans (Beltran et al. 2025)", "parents": {"B1": {"name": "POU domain, class 3, transcription factor 2, residues 262 to 338; numbered along this chain, P20265 (parent)", "chain": "EDTPTSDDLEQFAKQFKQRRIKLGFTQADVGLALGTLYGNVFSQTTICRFEALQLSFKNMCKLKPLLNKWLEEADSS"}}, "note": "± gives the uncertainty stated by the source."}
{"variants_of": "B1", "experiment": "abundance fitness (aPCA) (normalised: wild type 0, dead -1); higher = more abundant; growth selection in yeast, the domain comes from the species named", "details": "Homo sapiens"}
{"variant": "EDTPTSDDLEQFAKQFKQRRIKLGFTQADVGLALGTLYGNVFSQTTICRFEALQLSFKNMCKWKPLLNKWLEEADSS", "note": "[L63W]", "abundance fitness": "-0.489 ± 0.037"}
{"variant": "EDTPTSDDLEQFAKQFKQRRIKLGFTQADVGLALGTLYGNVFSQTTICRFEALQLSFKNMCKTKPLLNKWLEEADSS", "note": "[L63T]", "abundance fitness": "-0.524 ± 0.061"}
{"variant": "EDTPTSDDLEQFAKQFKQRRIKLGFTQADVGLALGTLYGNVFSQTTICRFEALQLSFKNMCKRKPLLNKWLEEADSS", "note": "[L63R]", "abundance fitness": "-0.794 ± 0.048"}
{"variant": "EDTPTSDDLEQFAKQFKQRRIKLGFTQADVGLALGTLYGNVFSQTTICRFEALQLSFKNMCKIKPLLNKWLEEADSS", "note": "[L63I]", "abundance fitness": "-0.148 ± 0.073"}
{"variant": "EDTPTSDDLEQFAKQFKQRRIKLGFTQADVGLALGTLYGNVFSQTTICRFEALQLSFKNMCKCKPLLNKWLEEADSS", "note": "[L63C]", "abundance fitness": "-0.399 ± 0.05"}
{"variant": "EDTPTSDDLEQFAKQFKQRRIKLGFTQADVGLALGTLYGNVFSQTTICRFEALQLSFKNMCKFKPLLNKWLEEADSS", "note": "[L63F]", "abundance fitness": "-0.347 ± 0.082"}
{"variant": "EDTPTSDDLEQFAKQFKQRRIKLGFTQADVGLALGTLYGNVFSQTTICRFEALQLSFKNMCKVKPLLNKWLEEADSS", "note": "[L63V]", "abundance fitness": "-0.263 ± 0.029"}
{"variant": "EDTPTSDDLEQFAKQFKQRRIKLGFTQADVGLALGTLYGNVFSQTTICRFEALQLSFKNMCKSKPLLNKWLEEADSS", "note": "[L63S]", "abundance fitness": "-0.668 ± 0.059"}
{"variant": "EDTPTSDDLEQFAKQFKQRRIKLGFTQADVGLALGTLYGNVFSQTTICRFEALQLSFKNMCKAKPLLNKWLEEADSS", "note": "[L63A]", "abundance fitness": "-0.665 ± 0.051"}
{"variant": "EDTPTSDDLEQFAKQFKQRRIKLGFTQADVGLALGTLYGNVFSQTTICRFEALQLSFKNMCKDKPLLNKWLEEADSS", "note": "[L63D]", "abundance fitness": "-0.785 ± 0.11"}
{"variant": "EDTPTSDDLEQFAKQFKQRRIKLGFTQADVGLALGTLYGNVFSQTTICRFEALQLSFKNMCKHKPLLNKWLEEADSS", "note": "[L63H]", "abundance fitness": "-0.451 ± 0.11"}
{"variant": "EDTPTSDDLEQFAKQFKQRRIKLGFTQADVGLALGTLYGNVFSQTTICRFEALQLSFKNMCKQKPLLNKWLEEADSS", "note": "[L63Q]", "abundance fitness": "-1.03 ± 0.18"}
{"variant": "EDTPTSDDLEQFAKQFKQRRIKLGFTQADVGLALGTLYGNVFSQTTICRFEALQLSFKNMCKKKPLLNKWLEEADSS", "note": "[L63K]", "abundance fitness": "-0.749 ± 0.14"}
{"variant": "EDTPTSDDLEQFAKQFKQRRIKLGFTQADVGLALGTLYGNVFSQTTICRFEALQLSFKNMCKEKPLLNKWLEEADSS", "note": "[L63E]", "abundance fitness": "-0.803 ± 0.09"}
{"variant": "EDTPTSDDLEQFAKQFKQRRIKLGFTQADVGLALGTLYGNVFSQTTICRFEALQLSFKNMCKMKPLLNKWLEEADSS", "note": "[L63M]", "abundance fitness": "0.004 ± 0.045"}
{"variant": "EDTPTSDDLEQFAKQFKQRRIKLGFTQADVGLALGTLYGNVFSQTTICRFEALQLSFKNMCKGKPLLNKWLEEADSS", "note": "[L63G]", "abundance fitness": "-0.796 ± 0.041"}
{"variant": "EDTPTSDDLEQFAKQFKQRRIKLGFTQADVGLALGTLYGNVFSQTTICRFEALQLSFKNMCKLKCLLNKWLEEADSS", "note": "[P65C]", "abundance fitness": "0.038 ± 0.2"}
{"variant": "EDTPTSDDLEQFAKQFKQRRIKLGFTQADVGLALGTLYGNVFSQTTICRFEALQLSFKNMCKLKHLLNKWLEEADSS", "note": "[P65H]", "abundance fitness": "-0.034 ± 0.25"}
{"variant": "EDTPTSDDLEQFAKQFKQRRIKLGFTQADVGLALGTLYGNVFSQTTICRFEALQLSFKNMCKLKDLLNKWLEEADSS", "note": "[P65D]", "abundance fitness": "-0.118 ± 0.097"}
{"variant": "EDTPTSDDLEQFAKQFKQRRIKLGFTQADVGLALGTLYGNVFSQTTICRFEALQLSFKNMCKLKVLLNKWLEEADSS", "note": "[P65V]", "abundance fitness": "-0.082 ± 0.074"}
{"variant": "EDTPTSDDLEQFAKQFKQRRIKLGFTQADVGLALGTLYGNVFSQTTICRFEALQLSFKNMCKLKELLNKWLEEADSS", "note": "[P65E]", "abundance fitness": "-0.133 ± 0.072"}
{"variant": "EDTPTSDDLEQFAKQFKQRRIKLGFTQADVGLALGTLYGNVFSQTTICRFEALQLSFKNMCKLKRLLNKWLEEADSS", "note": "[P65R]", "abundance fitness": "-0.182 ± 0.051"}
{"variant": "EDTPTSDDLEQFAKQFKQRRIKLGFTQADVGLALGTLYGNVFSQTTICRFEALQLSFKNMCKLKQLLNKWLEEADSS", "note": "[P65Q]", "abundance fitness": "0.124 ± 0.14"}
{"variant": "EDTPTSDDLEQFAKQFKQRRIKLGFTQADVGLALGTLYGNVFSQTTICRFEALQLSFKNMCKLKSLLNKWLEEADSS", "note": "[P65S]", "abundance fitness": "-0.38 ± 0.19"}
{"variant": "EDTPTSDDLEQFAKQFKQRRIKLGFTQADVGLALGTLYGNVFSQTTICRFEALQLSFKNMCKLKTLLNKWLEEADSS", "note": "[P65T]", "abundance fitness": "-0.059 ± 0.12"}
{"variant": "EDTPTSDDLEQFAKQFKQRRIKLGFTQADVGLALGTLYGNVFSQTTICRFEALQLSFKNMCKLKNLLNKWLEEADSS", "note": "[P65N]", "abundance fitness": "-0.138 ± 0.17"}
{"variant": "EDTPTSDDLEQFAKQFKQRRIKLGFTQADVGLALGTLYGNVFSQTTICRFEALQLSFKNMCKLKALLNKWLEEADSS", "note": "[P65A]", "abundance fitness": "-0.139 ± 0.094"}
{"variant": "EDTPTSDDLEQFAKQFKQRRIKLGFTQADVGLALGTLYGNVFSQTTICRFEALQLSFKNMCKLKKLLNKWLEEADSS", "note": "[P65K]", "abundance fitness": "-0.213 ± 0.22"}
{"variant": "EDTPTSDDLEQFAKQFKQRRIKLGFTQADVGLALGTLYGNVFSQTTICRFEALQLSFKNMCKLKLLLNKWLEEADSS", "note": "[P65L]", "abundance fitness": "-0.375 ± 0.13"}
{"variant": "EDTPTSDDLEQFAKQFKQRRIKLGFTQADVGLALGTLYGNVFSQTTICRFEALQLSFKNMCKLKGLLNKWLEEADSS", "note": "[P65G]", "abundance fitness": "-0.108 ± 0.05"}
{"variant": "EDTPTSDDLEQFAKQFKQRRIKLGFTQADVGLALGTLYGNVFSQTTICRFEALQLSFKNMCKLWPLLNKWLEEADSS", "note": "[K64W]", "abundance fitness": "-0.199 ± 0.04"}
{"variant": "EDTPTSDDLEQFAKQFKQRRIKLGFTQADVGLALGTLYGNVFSQTTICRFEALQLSFKNMCKLEPLLNKWLEEADSS", "note": "[K64E]", "abundance fitness": "-0.3 ± 0.046"}
{"variant": "EDTPTSDDLEQFAKQFKQRRIKLGFTQADVGLALGTLYGNVFSQTTICRFEALQLSFKNMCKLTPLLNKWLEEADSS", "note": "[K64T]", "abundance fitness": "-0.118 ± 0.045"}
{"variant": "EDTPTSDDLEQFAKQFKQRRIKLGFTQADVGLALGTLYGNVFSQTTICRFEALQLSFKNMCKLVPLLNKWLEEADSS", "note": "[K64V]", "abundance fitness": "-0.155 ± 0.034"}
{"variant": "EDTPTSDDLEQFAKQFKQRRIKLGFTQADVGLALGTLYGNVFSQTTICRFEALQLSFKNMCKLGPLLNKWLEEADSS", "note": "[K64G]", "abundance fitness": "-0.449 ± 0.037"}
